Where a chain is given by its changes, count along the chain named. Values belong to the binder of their own block, whether it stands above or below them.
Assays:
[1] = molecular target: dogCLDN18 (Canis lupus familiaris); test: flow cytometry; HEK293T dogCLDN18 moxGFP mass pop, 1ug; control HEK293T parental 1ug 5,328.00
[2] = molecular target: rat CLDN18 (rat) (UniProt Q5I0E5); test: flow cytometry; HEK293T rat CLDN18 moxGFP Clone5, 10ug; control HEK293T parental 10ug 12,759.00
[3] = molecular target: rat CLDN18 (rat) (UniProt Q5I0E5); test: flow cytometry; HEK293T rat CLDN18 moxGFP Clone5, 0.1ug; control HEK293T parental 0.1ug 3,276.00
[4] = molecular target: Claudin-18.1 (CLDN18.1) (human) (UniProt P56856); test: flow cytometry; HEK293T human CLDN18.1 mGFP 2B14, 10ug; control HEK293T parental 10ug 12,759.00
[5] = molecular target: Claudin-18.1 (CLDN18.1) (human) (UniProt P56856); test: flow cytometry; HEK293T human CLDN18.1 mGFP 2B14, 1ug; control HEK293T parental 1ug 5,328.00
[6] = molecular target: dogCLDN18 (Canis lupus familiaris); test: flow cytometry; HEK293T dogCLDN18 moxGFP mass pop, 0.1ug; control HEK293T parental 0.1ug 3,276.00
[7] = molecular target: dogCLDN18 (Canis lupus familiaris); test: flow cytometry; HEK293T dogCLDN18 moxGFP mass pop, 10ug; control HEK293T parental 10ug 12,759.00
[8] = molecular target: rat CLDN18 (rat) (UniProt Q5I0E5); test: flow cytometry; HEK293T rat CLDN18 moxGFP Clone5, 1ug; control HEK293T parental 1ug 5,328.00
[9] = molecular target: Claudin-18.1 (CLDN18.1) (human) (UniProt P56856); test: flow cytometry; HEK293T human CLDN18.1 mGFP 2B14, 0.1ug; control HEK293T parental 0.1ug 3,276.00
[10] = molecular target: Claudin-18.1 (CLDN18.1) (human) (UniProt P56856); test: flow cytometry; HEK293T human CLDN18.1 mGFP 2B14, 1ug; control HEK293T parental 1ug 4,198.00
[11] = molecular target: dogCLDN18 (Canis lupus familiaris); test: flow cytometry; HEK293T dogCLDN18 moxGFP mass pop, 1ug; control HEK293T parental 1ug 4,198.00
[12] = molecular target: dogCLDN18 (Canis lupus familiaris); test: flow cytometry; HEK293T dogCLDN18 moxGFP mass pop, 0.1ug; control HEK293T parental 0.1ug 3,268.00
[13] = molecular target: rat CLDN18 (rat) (UniProt Q5I0E5); test: flow cytometry; HEK293T rat CLDN18 moxGFP Clone5, 1ug; control HEK293T parental 1ug 4,198.00
[14] = molecular target: Claudin-18.1 (CLDN18.1) (human) (UniProt P56856); test: flow cytometry; HEK293T human CLDN18.1 mGFP 2B14, 0.1ug; control HEK293T parental 0.1ug 3,268.00
[15] = molecular target: rat CLDN18 (rat) (UniProt Q5I0E5); test: flow cytometry; HEK293T rat CLDN18 moxGFP Clone5, 0.1ug; control HEK293T parental 0.1ug 3,268.00
[16] = molecular target: Claudin-18.1 (CLDN18.1) (human) (UniProt P56856); test: flow cytometry; HEK293T human CLDN18.1 mGFP 2B14, 10ug; control HEK293T parental 10ug 16,812.50
[17] = molecular target: rat CLDN18 (rat) (UniProt Q5I0E5); test: flow cytometry; HEK293T rat CLDN18 moxGFP Clone5, 10ug; control HEK293T parental 10ug 16,812.50
[18] = molecular target: dogCLDN18 (Canis lupus familiaris); test: flow cytometry; HEK293T dogCLDN18 moxGFP mass pop, 10ug; control HEK293T parental 10ug 16,812.50
[19] = molecular target: rat CLDN18 (rat) (UniProt Q5I0E5); test: flow cytometry; HEK293T rat CLDN18 moxGFP Clone5, 0.1ug; control HEK293T parental 0.1ug 2,726.00
[20] = molecular target: dogCLDN18 (Canis lupus familiaris); test: flow cytometry; HEK293T dogCLDN18 moxGFP mass pop, 10ug; control HEK293T parental 10ug 22,390.50
[21] = molecular target: Claudin-18.1 (CLDN18.1) (human) (UniProt P56856); test: flow cytometry; HEK293T human CLDN18.1 mGFP 2B14, 10ug; control HEK293T parental 10ug 22,390.50
[22] = molecular target: dogCLDN18 (Canis lupus familiaris); test: flow cytometry; HEK293T dogCLDN18 moxGFP mass pop, 1ug; control HEK293T parental 1ug 9,051.00
[23] = molecular target: Claudin-18.1 (CLDN18.1) (human) (UniProt P56856); test: flow cytometry; HEK293T human CLDN18.1 mGFP 2B14, 0.1ug; control HEK293T parental 0.1ug 2,726.00
[24] = molecular target: dogCLDN18 (Canis lupus familiaris); test: flow cytometry; HEK293T dogCLDN18 moxGFP mass pop, 0.1ug; control HEK293T parental 0.1ug 2,726.00
[25] = molecular target: rat CLDN18 (rat) (UniProt Q5I0E5); test: flow cytometry; HEK293T rat CLDN18 moxGFP Clone5, 1ug; control HEK293T parental 1ug 9,051.00
[26] = molecular target: rat CLDN18 (rat) (UniProt Q5I0E5); test: flow cytometry; HEK293T rat CLDN18 moxGFP Clone5, 10ug; control HEK293T parental 10ug 22,390.50
[27] = molecular target: Claudin-18.1 (CLDN18.1) (human) (UniProt P56856); test: flow cytometry; HEK293T human CLDN18.1 mGFP 2B14, 1ug; control HEK293T parental 1ug 9,051.00
[28] = molecular target: rat CLDN18 (rat) (UniProt Q5I0E5); test: flow cytometry; HEK293T rat CLDN18 moxGFP Clone5, 0.1ug; control HEK293T parental 0.1ug 3,589.50
[29] = molecular target: rat CLDN18 (rat) (UniProt Q5I0E5); test: flow cytometry; HEK293T rat CLDN18 moxGFP Clone5, 1ug; control HEK293T parental 1ug 8,287.00
[30] = molecular target: dogCLDN18 (Canis lupus familiaris); test: flow cytometry; HEK293T dogCLDN18 moxGFP mass pop, 10ug; control HEK293T parental 10ug 29,683.50
[31] = molecular target: dogCLDN18 (Canis lupus familiaris); test: flow cytometry; HEK293T dogCLDN18 moxGFP mass pop, 1ug; control HEK293T parental 1ug 8,287.00
[32] = molecular target: Claudin-18.1 (CLDN18.1) (human) (UniProt P56856); test: flow cytometry; HEK293T human CLDN18.1 mGFP 2B14, 1ug; control HEK293T parental 1ug 8,287.00
[33] = molecular target: Claudin-18.1 (CLDN18.1) (human) (UniProt P56856); test: flow cytometry; HEK293T human CLDN18.1 mGFP 2B14, 0.1ug; control HEK293T parental 0.1ug 3,589.50
[34] = molecular target: dogCLDN18 (Canis lupus familiaris); test: flow cytometry; HEK293T dogCLDN18 moxGFP mass pop, 0.1ug; control HEK293T parental 0.1ug 3,589.50
[35] = molecular target: rat CLDN18 (rat) (UniProt Q5I0E5); test: flow cytometry; HEK293T rat CLDN18 moxGFP Clone5, 10ug; control HEK293T parental 10ug 29,683.50
[36] = molecular target: Claudin-18.1 (CLDN18.1) (human) (UniProt P56856); test: flow cytometry; HEK293T human CLDN18.1 mGFP 2B14, 10ug; control HEK293T parental 10ug 29,683.50

rat CLDN18 (rat), sequence (Q5I0E5 whole entry): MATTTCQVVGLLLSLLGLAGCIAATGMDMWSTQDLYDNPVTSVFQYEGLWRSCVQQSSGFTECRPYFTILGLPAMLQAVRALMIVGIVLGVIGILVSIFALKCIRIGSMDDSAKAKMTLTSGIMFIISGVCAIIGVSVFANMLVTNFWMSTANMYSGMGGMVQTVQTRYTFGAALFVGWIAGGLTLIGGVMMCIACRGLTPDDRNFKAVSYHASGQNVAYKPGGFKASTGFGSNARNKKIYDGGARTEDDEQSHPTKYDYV
Claudin-18.1 (CLDN18.1) (human), sequence (P56856 whole entry): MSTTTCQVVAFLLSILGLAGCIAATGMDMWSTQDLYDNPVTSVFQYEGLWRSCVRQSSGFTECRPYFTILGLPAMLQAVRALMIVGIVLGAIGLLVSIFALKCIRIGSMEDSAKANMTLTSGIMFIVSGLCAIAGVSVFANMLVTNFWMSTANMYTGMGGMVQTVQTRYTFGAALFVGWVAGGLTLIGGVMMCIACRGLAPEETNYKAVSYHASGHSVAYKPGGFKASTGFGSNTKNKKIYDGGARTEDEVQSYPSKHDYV

- flow cytometry signal [1]: 6030
- flow cytometry signal [2]: 13800
- flow cytometry signal [3]: 3810
- flow cytometry signal [4]: 76900
- flow cytometry signal [5]: 54100
- flow cytometry signal [6]: 3860
- flow cytometry signal [7]: 10200
- flow cytometry signal [8]: 7320
- flow cytometry signal [9]: 52100
B1: HuAb307-3 (antibody, V domains shown)
VH: EVQLLESGGGLVQPGGSLRLSCAASGFTFSSYTMSWVRQAPGKGLEWVATIIIGGSYTYYADSVKGRFTISRDNSKNTLYLQMNSLRAEDTAVYYCTRLVKGNAMDYWGQGTLVTVSS
VL: DIVMTQSPDSLAVSLGERVTMNCKSSQSLLNSGNQKNYLSWYQQKPGQPPKLLFYWASTRESGVPDRFSGSGSGTDFTLTISSVQAEDVAVYYCQNDYSYPFTFGQGTKLEIK

- flow cytometry signal [10]: 55200
- flow cytometry signal [11]: 4230
- flow cytometry signal [12]: 3700
- flow cytometry signal [13]: 5070
- flow cytometry signal [14]: 50400
- flow cytometry signal [15]: 3720
- flow cytometry signal [16]: 99100
- flow cytometry signal [17]: 16700
- flow cytometry signal [18]: 11700
B2: 02-0358-h3 (antibody, V domains shown)
VH: EVQLVESGGGLVQPGGSLRLSCAVSGFTFSSFGMHWVRQAPGKGLEWVAYISSGTTNIYYADSVKGRFTVSRDNAKNSLYLQMNSLRAEDTAVYYCVRSGYYGNSLDYWGQGTLVTVSS
VL: B1 VL with L30F, K36R, S40T, F54I, D97V, S99I, F102L

- flow cytometry signal [19]: 3600
- flow cytometry signal [20]: 21800
- flow cytometry signal [21]: 156000
- flow cytometry signal [22]: 9480
- flow cytometry signal [23]: 53100
- flow cytometry signal [24]: 3690
- flow cytometry signal [25]: 10900
- flow cytometry signal [26]: 30700
- flow cytometry signal [27]: 68800
B3: 02-0307-h6 (antibody, V domains shown)
VH: B1 VH
VL: B1 VL with N31S

- flow cytometry signal [28]: 4580
- flow cytometry signal [29]: 12400
- flow cytometry signal [30]: 20600
- flow cytometry signal [31]: 8760
- flow cytometry signal [32]: 64800
- flow cytometry signal [33]: 52700
- flow cytometry signal [34]: 4700
- flow cytometry signal [35]: 31200
- flow cytometry signal [36]: 140000
B4: 02-0358-h5 (antibody, V domains shown)
VH: B2 VH
VL: B1 VL with L30F, N31S, K36R, S40T, F54I, D97V, S99I, F102L
